We go through one substance from PMC7269131.

The assay addresses Factor XIIIA (the A-subunit of coagulation Factor XIII), zymogen (UniProt P00488). Nature of the assay: AUC.

In turn, “Factor XIIIA (the A-subunit of coagulation Factor XIII), zymogen (from UniProt P00488 1-732) (enzyme)” had a percent dissociated to monomers after 6 h in 25 mM CaCl2 of 80%.
